Experimental data: patent publication US20070178082A1 (Ablynx, published 2007)

Key:
rabbit serum albumin = rabbit serum albumin (rabbit, UniProt P49065 25-608); experiment: Blot: phage displaying the nanobody on plasma (1/10) separated by SDS-PAGE and blotted on nitrocellulose, anti-M13-HRP [panel MSA 24]
mouse serum albumin = target: T1, mouse serum albumin (mouse, UniProt P07724 25-608); experiment: BIACORE, mouse albumin immobilised on CM5 chip
T1 construct: also called MSA; mouse albumin
T1 sequence (P07724 25-608 limits assumed): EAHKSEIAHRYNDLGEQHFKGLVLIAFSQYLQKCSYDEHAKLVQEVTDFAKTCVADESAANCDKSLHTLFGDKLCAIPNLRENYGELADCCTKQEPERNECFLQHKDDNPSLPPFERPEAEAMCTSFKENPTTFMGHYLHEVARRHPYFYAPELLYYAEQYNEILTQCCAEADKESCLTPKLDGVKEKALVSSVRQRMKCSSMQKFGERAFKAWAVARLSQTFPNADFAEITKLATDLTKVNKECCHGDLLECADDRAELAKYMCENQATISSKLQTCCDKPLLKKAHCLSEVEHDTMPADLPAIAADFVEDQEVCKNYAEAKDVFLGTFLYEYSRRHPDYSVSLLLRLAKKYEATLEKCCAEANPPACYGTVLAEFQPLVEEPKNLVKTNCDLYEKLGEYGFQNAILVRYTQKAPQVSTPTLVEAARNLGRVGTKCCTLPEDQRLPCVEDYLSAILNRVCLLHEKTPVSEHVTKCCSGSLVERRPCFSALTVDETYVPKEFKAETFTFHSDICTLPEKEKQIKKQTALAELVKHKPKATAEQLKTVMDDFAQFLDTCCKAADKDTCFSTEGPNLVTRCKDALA

Sequence of rabbit serum albumin (P49065 25-608 limits assumed): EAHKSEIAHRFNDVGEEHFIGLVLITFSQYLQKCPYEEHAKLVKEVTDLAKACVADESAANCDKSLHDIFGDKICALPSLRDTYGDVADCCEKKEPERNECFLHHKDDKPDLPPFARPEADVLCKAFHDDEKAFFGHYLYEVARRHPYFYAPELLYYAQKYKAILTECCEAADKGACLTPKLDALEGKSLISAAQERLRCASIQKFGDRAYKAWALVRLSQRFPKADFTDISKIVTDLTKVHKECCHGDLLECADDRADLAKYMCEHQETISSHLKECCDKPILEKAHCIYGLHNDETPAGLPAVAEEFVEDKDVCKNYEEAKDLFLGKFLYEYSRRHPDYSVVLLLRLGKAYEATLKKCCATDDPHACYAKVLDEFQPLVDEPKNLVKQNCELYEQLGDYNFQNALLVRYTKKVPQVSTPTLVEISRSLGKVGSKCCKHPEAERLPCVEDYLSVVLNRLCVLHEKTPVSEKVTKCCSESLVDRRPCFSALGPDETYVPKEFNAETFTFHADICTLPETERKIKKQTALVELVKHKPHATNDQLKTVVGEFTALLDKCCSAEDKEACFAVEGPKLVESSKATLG

binding result (rabbit serum albumin): no binding
Kd (mouse serum albumin): 28 nM
koff (mouse serum albumin): 0.018 s⁻¹
kon (mouse serum albumin): 640000 M⁻¹ s⁻¹
B1: MSA24 (VHH)
VHH: QVQLQESGGGLVQPGNSLRLSCAASGFTFRNFGMSWVRQAPGKEPEWVSSISGSGSNTIYADSVKDRFTISRDNAKSTLYLQMNSLKPEDTAVYYCTIGGSLSRSSQGTQVTVSS
notes: Llama VHH selected on mouse serum albumin
